The record followed here is IntAct's records for PubMed 25910212.

B1: Beta-crystallin A4 (Homo sapiens), P53673 (parent)
chain: MTLQCTKSAGPWKMVVWDEDGFQGRRHEFTAECPSVLELGFETVRSLKVLSGAWVGFEHAGFQGQQYILERGEYPSWDAWGGNTAYPAERLTSFRPAACANHRDSRLTIFEQENFLGKKGELSDDYPSLQAMGWEGNEVGSFHVHSGAWVCSQFPGYRGFQYVLECDHHSGDYKHFREWGSHAPTFQVQSIRRIQQ
partner: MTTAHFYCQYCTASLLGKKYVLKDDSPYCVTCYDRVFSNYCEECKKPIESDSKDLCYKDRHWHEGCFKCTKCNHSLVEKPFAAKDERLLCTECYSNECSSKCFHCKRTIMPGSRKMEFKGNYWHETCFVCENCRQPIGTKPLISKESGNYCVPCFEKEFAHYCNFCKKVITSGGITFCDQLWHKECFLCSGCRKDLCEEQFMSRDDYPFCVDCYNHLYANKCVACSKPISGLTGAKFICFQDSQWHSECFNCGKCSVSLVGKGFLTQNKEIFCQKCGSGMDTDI
B2: Emerin (Homo sapiens), P50402 (parent)
chain: MDNYADLSDTELTTLLRRYNIPHGPVVGSTRRLYEKKIFEYETQRRRLSPPSSSAASSYSFSDLNSTRGDADMYDLPKKEDALLYQSKGYNDDYYEESYFTTRTYGEPESAGPSRAVRQSVTSFPDADAFHHQVHDDDLLSSSEEECKDRERPMYGRDSAYQSITHYRPVSASRSSLDLSYYPTSSSTSFMSSSSSSSSWLTRRAIRPENRAPGAGLGQDRQVPLWGQLLLFLVFVIVLFFIYHFMQAEEGNPF
partner: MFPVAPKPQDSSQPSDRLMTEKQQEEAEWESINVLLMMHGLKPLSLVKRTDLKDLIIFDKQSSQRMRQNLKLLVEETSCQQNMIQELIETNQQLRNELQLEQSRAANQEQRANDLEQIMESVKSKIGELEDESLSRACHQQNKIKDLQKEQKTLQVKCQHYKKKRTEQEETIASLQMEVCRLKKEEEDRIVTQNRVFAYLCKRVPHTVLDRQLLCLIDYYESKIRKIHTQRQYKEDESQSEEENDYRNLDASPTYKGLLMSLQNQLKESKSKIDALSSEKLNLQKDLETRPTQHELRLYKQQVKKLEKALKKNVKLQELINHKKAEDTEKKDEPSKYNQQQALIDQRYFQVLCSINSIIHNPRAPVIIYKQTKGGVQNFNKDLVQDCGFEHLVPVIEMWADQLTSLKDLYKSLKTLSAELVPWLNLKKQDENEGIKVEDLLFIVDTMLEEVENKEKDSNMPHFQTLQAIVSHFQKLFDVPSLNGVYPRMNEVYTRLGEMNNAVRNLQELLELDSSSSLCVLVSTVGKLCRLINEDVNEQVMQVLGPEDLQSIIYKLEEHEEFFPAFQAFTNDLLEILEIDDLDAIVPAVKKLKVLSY
B3: Low density lipoprotein receptor adapter protein 1 (Homo sapiens), Q5SW96 (parent)
chain: MDALKSAGRALIRSPSLAKQSWGGGGRHRKLPENWTDTRETLLEGMLFSLKYLGMTLVEQPKGEELSAAAIKRIVATAKASGKKLQKVTLKVSPRGIILTDNLTNQLIENVSIYRISYCTADKMHDKVFAYIAQSQHNQSLECHAFLCTKRKMAQAVTLTVAQAFKVAFEFWQVSKEEKEKRDKASQEGGDVLGARQDCTPSLKSLVATGNLLDLEETAKAPLSTVSANTTNMDEVPRPQALSGSSVVWELDDGLDEAFSRLAQSRTNPQVLDTGLTAQDMHYAQCLSPVDWDKPDSSGTEQDDLFSF
partner: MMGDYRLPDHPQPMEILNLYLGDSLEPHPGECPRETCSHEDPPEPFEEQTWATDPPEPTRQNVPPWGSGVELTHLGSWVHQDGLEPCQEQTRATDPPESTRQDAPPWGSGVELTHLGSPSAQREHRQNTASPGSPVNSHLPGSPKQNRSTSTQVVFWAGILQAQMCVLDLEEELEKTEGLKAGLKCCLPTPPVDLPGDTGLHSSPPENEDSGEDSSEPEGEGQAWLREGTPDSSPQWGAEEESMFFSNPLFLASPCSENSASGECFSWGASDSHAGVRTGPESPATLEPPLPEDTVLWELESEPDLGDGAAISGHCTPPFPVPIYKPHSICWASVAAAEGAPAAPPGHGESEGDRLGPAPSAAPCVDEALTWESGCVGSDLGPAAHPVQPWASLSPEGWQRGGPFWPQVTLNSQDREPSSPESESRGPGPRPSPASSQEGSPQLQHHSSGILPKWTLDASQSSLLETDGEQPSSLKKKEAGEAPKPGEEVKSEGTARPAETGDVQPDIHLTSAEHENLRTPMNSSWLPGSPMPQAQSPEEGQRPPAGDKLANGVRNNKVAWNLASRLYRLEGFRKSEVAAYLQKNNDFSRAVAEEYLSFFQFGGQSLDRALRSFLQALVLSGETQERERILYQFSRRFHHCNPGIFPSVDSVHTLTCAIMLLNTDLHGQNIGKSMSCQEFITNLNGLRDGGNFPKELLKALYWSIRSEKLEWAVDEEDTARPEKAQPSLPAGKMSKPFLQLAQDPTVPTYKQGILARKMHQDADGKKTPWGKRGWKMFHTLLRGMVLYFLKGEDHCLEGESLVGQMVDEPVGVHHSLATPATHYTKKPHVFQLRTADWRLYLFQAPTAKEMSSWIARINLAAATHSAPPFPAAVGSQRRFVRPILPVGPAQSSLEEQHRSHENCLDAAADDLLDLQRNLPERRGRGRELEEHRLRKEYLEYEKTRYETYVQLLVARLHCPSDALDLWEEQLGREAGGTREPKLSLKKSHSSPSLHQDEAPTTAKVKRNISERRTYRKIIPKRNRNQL
B4: Multifunctional procollagen lysine hydroxylase and glycosyltransferase LH3 (Homo sapiens), O60568 (parent)
chain: MTSSGPGPRFLLLLPLLLPPAASASDRPRGRDPVNPEKLLVITVATAETEGYLRFLRSAEFFNYTVRTLGLGEEWRGGDVARTVGGGQKVRWLKKEMEKYADREDMIIMFVDSYDVILAGSPTELLKKFVQSGSRLLFSAESFCWPEWGLAEQYPEVGTGKRFLNSGGFIGFATTIHQIVRQWKYKDDDDDQLFYTRLYLDPGLREKLSLNLDHKSRIFQNLNGALDEVVLKFDRNRVRIRNVAYDTLPIVVHGNGPTKLQLNYLGNYVPNGWTPEGGCGFCNQDRRTLPGGQPPPRVFLAVFVEQPTPFLPRFLQRLLLLDYPPDRVTLFLHNNEVFHEPHIADSWPQLQDHFSAVKLVGPEEALSPGEARDMAMDLCRQDPECEFYFSLDADAVLTNLQTLRILIEENRKVIAPMLSRHGKLWSNFWGALSPDEYYARSEDYVELVQRKRVGVWNVPYISQAYVIRGDTLRMELPQRDVFSGSDTDPDMAFCKSFRDKGIFLHLSNQHEFGRLLATSRYDTEHLHPDLWQIFDNPVDWKEQYIHENYSRALEGEGIVEQPCPDVYWFPLLSEQMCDELVAEMEHYGQWSGGRHEDSRLAGGYENVPTVDIHMKQVGYEDQWLQLLRTYVGPMTESLFPGYHTKARAVMNFVVRYRPDEQPSLRPHHDSSTFTLNVALNHKGLDYEGGGCRFLRYDCVISSPRKGWALLHPGRLTHYHEGLPTTWGTRYIMVSFVDP
B5: Elongation factor Ts, mitochondrial (Homo sapiens), P43897-2 (parent)
chain: MSLLRSLRVFLVARTGSYPAGSLLRQSPQPRHTFYAGPRLSASASSKELLMKLRRKTGYSFVNCKKALETCGGDLKQAEIWLHKEAQKEGWSKAAKLQGRKTKEGLIGLLQEGNTTVLVEVNCETDFVSRNLKFQLLVQQVALGTMMHCQTLKDQPSAYSKVQWLTPVNLALWEAEAGGSLEGFLNSSELSGLPAGPDREGSLKDQLALAIGKLGENMILKRAAWVKVPSGFYVGSYVHGAMQSPSLHKLVLGKYGALVICETSEQKTNLEDVGRRLGQHVVGMAPLSVGSLDDEPGGEAETKMLSQPYLLDPSITLGQYVQPQGVSVVDFVRFECGEGEEAAETE
partner: B2 partner
B6: Plakophilin-2 (Homo sapiens), Q99959-2 (parent)
chain: MAAPGAPAEYGYIRTVLGQQILGQLDSSSLALPSEAKLKLAGSSGRGGQTVKSLRIQEQVQQTLARKGRSSVGNGNLHRTSSVPEYVYNLHLVENDFVGGRSPVPKTYDMLKAGTTATYEGRWGRGTAQYSSQKSVEERSLRHPLRRLEISPDSSPERAHYTHSDYQYSQRSQAGHTLHHQESRRAALLVPPRYARSEIVGVSRAGTTSRQRHFDTYHRQYQHGSVSDTVFDSIPANPALLTYPRPGTSRSMGNLLEKENYLTAGLTVGQVRPLVPLQPVTQNRASRSSWHQSSFHSTRTLREAGPSVAVDSSGRRAHLTVGQAAAGGSGNLLTERSTFTDSQLGNADMEMTLERAVSMLEADHMLPSRISAAATFIQHECFQKSEARKRVNQLRGILKLLQLLKVQNEDVQRAVCGALRNLVFEDNDNKLEVAELNGVPRLLQVLKQTRDLETKKQITGLLWNLSSNDKLKNLMITEALLTLTENIIIPFSGWPEGDYPKANGLLDFDIFYNVTGCLRNMSSAGADGRKAMRRCDGLIDSLVHYVRGTIADYQPDDKATENCVCILHNLSYQLEAELPEKYSQNIYIQNRNIQTDNNKSIGCFGSRSRKVKEQYQDVPMPEEKSNPKGVEWLWHSIVIRMYLSLIAKSVRNYTQEASLGALQNLTAGSGPMPTSVAQTVVQKESGLQHTRKMLHVGDPSVKKTAISLLRNLSRNLSLQNEIAKETLPDLVSIIPDTVPSTDLLIETTASACYTLNNIIQNSYQNARDLLNTGGIQKIMAISAGDAYASNKASKAASVLLYSLWAHTELHHAYKKAQFKKTDFVNSRTAKAYHSLKD
partner: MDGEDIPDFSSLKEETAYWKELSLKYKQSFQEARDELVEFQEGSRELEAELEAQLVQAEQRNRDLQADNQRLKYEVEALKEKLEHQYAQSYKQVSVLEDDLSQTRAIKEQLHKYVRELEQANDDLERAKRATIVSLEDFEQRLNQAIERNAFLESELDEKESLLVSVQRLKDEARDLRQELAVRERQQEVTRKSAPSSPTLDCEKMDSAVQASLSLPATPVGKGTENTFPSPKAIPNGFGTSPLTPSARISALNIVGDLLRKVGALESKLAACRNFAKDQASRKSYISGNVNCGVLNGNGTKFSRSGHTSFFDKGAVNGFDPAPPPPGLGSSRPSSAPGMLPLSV

The first test covers variants of B1. The note with it: with fhl5_human FHL5, Q5TD97.
For L69P, the “effect of a mutation on the interaction” value is “disrupting interaction strength”. Regarding V36M, the “effect of a mutation on the interaction” value is listed as “disrupting interaction strength”.

In a further test the parent is B2. The note with it: with cep70_human CEP70, Q8NHQ1.
On to P183T, for which the “effect of a mutation on the interaction” value was “with no effect”. On to P183H, for which the “effect of a mutation on the interaction” value is recorded as “with no effect”. Consider D72V, for which the “effect of a mutation on the interaction” value is on record as “with no effect”. Still for that read-out and setting: in the case of S54F it was “with no effect”.

The variants in the next test derive from B3. The note with it: with PSD4, Q8NDX1-2.
With R238W, the “effect of a mutation on the interaction” value was “with no effect”.

Variants of B4 are the subject of a further test. Particulars: with ehmt2_human EHMT2, Q96KQ7.
Sequence of ehmt2_human EHMT2, Q96KQ7 (Q96KQ7 whole entry): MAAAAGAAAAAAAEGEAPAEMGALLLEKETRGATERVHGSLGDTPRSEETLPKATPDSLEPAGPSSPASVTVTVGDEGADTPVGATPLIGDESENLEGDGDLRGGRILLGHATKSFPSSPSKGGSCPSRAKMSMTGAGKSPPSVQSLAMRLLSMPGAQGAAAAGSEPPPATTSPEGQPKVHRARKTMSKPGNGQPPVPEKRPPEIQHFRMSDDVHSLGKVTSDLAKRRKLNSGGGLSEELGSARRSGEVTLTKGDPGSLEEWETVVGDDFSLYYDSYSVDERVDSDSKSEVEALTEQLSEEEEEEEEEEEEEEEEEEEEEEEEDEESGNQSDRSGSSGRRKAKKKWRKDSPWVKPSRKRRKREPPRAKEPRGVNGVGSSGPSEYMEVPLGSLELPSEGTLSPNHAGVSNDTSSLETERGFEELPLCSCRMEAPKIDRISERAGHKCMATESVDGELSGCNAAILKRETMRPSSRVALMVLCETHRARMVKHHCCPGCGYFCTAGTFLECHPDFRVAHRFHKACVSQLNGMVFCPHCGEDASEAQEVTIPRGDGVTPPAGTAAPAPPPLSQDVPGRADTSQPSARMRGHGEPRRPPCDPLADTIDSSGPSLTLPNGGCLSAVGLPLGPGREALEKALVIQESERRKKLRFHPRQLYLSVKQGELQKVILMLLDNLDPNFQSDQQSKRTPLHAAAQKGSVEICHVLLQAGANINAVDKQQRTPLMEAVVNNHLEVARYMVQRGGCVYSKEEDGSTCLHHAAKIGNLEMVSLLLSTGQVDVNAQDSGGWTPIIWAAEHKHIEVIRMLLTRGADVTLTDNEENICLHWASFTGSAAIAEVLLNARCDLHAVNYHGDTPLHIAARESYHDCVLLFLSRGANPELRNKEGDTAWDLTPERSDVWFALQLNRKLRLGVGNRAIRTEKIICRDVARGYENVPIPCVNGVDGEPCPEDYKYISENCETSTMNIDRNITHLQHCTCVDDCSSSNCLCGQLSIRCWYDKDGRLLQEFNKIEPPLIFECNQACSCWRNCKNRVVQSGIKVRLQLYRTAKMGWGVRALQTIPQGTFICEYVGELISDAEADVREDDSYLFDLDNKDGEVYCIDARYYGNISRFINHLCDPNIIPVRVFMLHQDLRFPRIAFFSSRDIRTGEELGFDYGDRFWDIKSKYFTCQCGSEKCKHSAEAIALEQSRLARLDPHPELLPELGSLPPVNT
Regarding N223S, the “effect of a mutation on the interaction” value was “with no effect”.

Variants of B5 are the subject of a further test. The note with it: with cep70_human CEP70, Q8NHQ1.
Consider R333W, for which the “effect of a mutation on the interaction” value is reported as “disrupting interaction strength”.

In another test the parent is B6. The note with it: with ndel1_human NDEL1, Q9GZM8.
In the case of S140F, the “effect of a mutation on the interaction” value is given as “disrupting interaction strength”. Still for that read-out and setting: the result for A264V reads “with no effect”. With S644P, the “effect of a mutation on the interaction” value was “disrupting interaction strength”.
